T1: L1-CR1 (Her054P)
T1 construct: also called 1.0
T1 chain: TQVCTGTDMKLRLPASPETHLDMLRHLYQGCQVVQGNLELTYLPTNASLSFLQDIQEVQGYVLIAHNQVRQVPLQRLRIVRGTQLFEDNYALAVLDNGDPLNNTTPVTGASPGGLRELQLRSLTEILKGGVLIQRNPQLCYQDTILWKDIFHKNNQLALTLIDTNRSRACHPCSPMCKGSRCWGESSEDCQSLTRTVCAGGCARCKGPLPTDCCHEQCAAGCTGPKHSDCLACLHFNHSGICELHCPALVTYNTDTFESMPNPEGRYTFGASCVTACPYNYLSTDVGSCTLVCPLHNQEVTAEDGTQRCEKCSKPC

B1: S1R3C1_DP47_1H1 (scFv, V domains shown)
VH: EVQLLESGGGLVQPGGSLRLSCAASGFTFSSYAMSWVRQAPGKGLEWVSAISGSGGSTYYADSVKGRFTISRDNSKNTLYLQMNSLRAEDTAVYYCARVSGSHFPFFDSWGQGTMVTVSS
VL: QSVLTQPPSVSVAPGQTARITCGGDKIGHKSVHWYQQKPGQAPVLLVYDDRKRPSGIPERFSGSNSGNTATLTISRVEAGDEAAYHCQVWDRSSDPYVFGTGTKVTVL
notes: scFv, soluble from bacterial periplasm in the screen; also called Her2_S1R3C1_DP47_1H1
B2: S1R3C1_BMV_1H11 (scFv, V domains shown)
VH: GVQLVESGGGLVKPGGSLRLSCAASGFTFSSYNMNWVRQAPGKGLEWVSAISGSGGSTYYADSVTGRFTISRDNSKNTLYLQMNSLRAEDTAVYYCAKDTSGWYGDGMDVWGRGTLVTVSS
VL: DIQMTQSPSTLSASIGDRVTITCRASEGIYHWLAWYQQKPGKAPKLLIYKASSLASGAPSRFSGSGSGTDFTLTISSLQPDDFATYYCQQYSNYPLTFGGGTKLEIK
notes: scFv, soluble from bacterial periplasm in the screen; also called Her2_S1R3C1_BMV_1H11
B3: S1R3A1_BMV_1G4 (scFv, V domains shown)
VH: QVQLVESGAEVKKPGASVKVSCKASGYTFTSYDINWVRQAPGQRLEWMGWINAGNGNTKYSQKFQGRVTITRDTSASTAYMELRSLRSDDTAVYYCARGRSYGHPYYFDYWGQGTLVTVSS
VL: QSVLTQPASVSGSPGQSITISCTGTSSDVGGYNYVSWYQQHPGKAPKLMIYEGSKRPSGVSNRFSGSKSGNTASLTISGLQAEDEADYYCSSYTTRSTRVFGGGTKLTVL
notes: scFv, soluble from bacterial periplasm in the screen; also called Her2_S1R3A1_BMV_1G4
B4: S1R3B1_DP47_1E1 (scFv, V domains shown)
VH: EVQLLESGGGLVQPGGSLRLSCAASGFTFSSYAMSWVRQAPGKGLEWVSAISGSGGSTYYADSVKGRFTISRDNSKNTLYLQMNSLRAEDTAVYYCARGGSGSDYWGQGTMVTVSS
VL: NFMLTQPHSVSGSPGKTVTISCTRSSGYIDSKYVQWYQQRPGSAPTTVIYEDNRRPSGVPDRFSGSIDSSSNSASLTISGLETEDEADYYCQSYDDTNVVFGGGTKVTVL
notes: scFv, soluble from bacterial periplasm in the screen; also called Her2_S1R3B1_DP47_1E1
B5: S1R3B1_BMV_1A10 (scFv, V domains shown)
VH: QMQLVQSGGGVVQPGRSLRLSCAASGFTFSSYGMHWVRQAPGKGLEWVAVISYDGSIKYYADSVKGRFTISRDNSKNTLYLQMNSLRAEDTGVYYCSKDRYSSGWYSSDAFDIWGRGTMVTVSS
VL: SSELTQDPAVSVALGQTVRITCQGDSLRSYYASWYQQKPGQAPVLVIYGKNNRPSGIPDRFSGSSSGNTASLTITGAQAEDEADYYCHSRDSSGNHVLFGGGTKLTVL
notes: scFv, soluble from bacterial periplasm in the screen; also called Her2_S1R3B1_BMV_1A10
B6: S1R3B1_BMV_1C12 (scFv, V domains shown)
VH: EVQLVQSGGGVVQPGRSLRLSCAASGFTFSSYGMHWVRQAPGKGLEWVAVISYDGSIKYYADSVKGRFTISRDNSKNTLYLQMNSLRAEDTAVYYCARTGEYSGYDTSGYSNWGQGTLVTVSS
VL: QSVLTQPPSASGTPGQRVTISCSGSSSNIGSNTVNWYQRLPGAAPQLLIYNNDQRPSGIPDRFSGSKSGTSGSLVISGLQSEDEADYYCASWDDSLNGRVFGGGTKLTVL
notes: scFv, soluble from bacterial periplasm in the screen; also called Her2_S1R3B1_BMV_1C12
B7: S1R3C1_CS_1B10 (scFv, V domains shown)
VH: QVQLQQSGAEVKKPGSSVKVSCKASGGTISNYAISWVRLAPGQGLEWMGSIVPLHGTTNFAQKFQGRVTITADESTSTSYMEVNVLTYEDTAMYYCASLNWGYWGRGTLVTVSS
VL: NFMLTQPHSVSESPGKTVTISCTGSSGSIASNYVQWYQQRPDSAPTTVIYEDNRRSSGVPDRFSGSIDSSSNSASLSISGLKTEDEADYYCQSYDSSGHVVFGGGTKLTVL
notes: scFv, on phage in the screen; also called Her2_S1R3C1_CS_1B10

The first assay deals with T2, EQR (Her017P).
T2 construct: also called HER2 EQR-Fc; HER2 EQR DIMER
Description: ELISA, soluble scFv on EQR.
Description: (§1) Various Her2-Fc proteins (e.g., Her008P, Her017P, Her018P, etc.) or a negative control murine IgG2a protein were coated overnight at 4° C. on 96-well Nunc Maxisorp at a concentration of 1 ug/ml in PBS. Alternatively, pre-blocked streptavidin-coated plates (Greiner) were coated with biotinylated Her2-Fc proteins for 1 hour at room temperature at a concentration of 1 ug/ml in block buffer (3% skim milk/1% BSA/PBS). Plates were washed three times using PBS and blocked for 1 hour at room temperature in 3% skim milk/1% BSA/PBS. Phage or peripreps were prepared as described above and were blocked for 1 hour at room temperature in an equal volume of 6% skim milk/1% BSA/PBS. Blocked plates were washed five times with PBS and 50 μl/well of blocked phage or periprep were transferred to the appropriate plates and incubated for 1 hour at room temperature. […] Plates were incubated for a further hour at room temperature and washed seven times with PBS. Signal was developed using TMB, the reaction stopped with H₂SO₄ and the absorbance read at 450 nm on an Envision plate reader (Perkin Elmer).
As for B1, the binding result is on record as “no binding”.
With B2, the binding result is recorded as “no binding”.
The same measure, in the same setting: then B3, with “no binding”; and B4, with “no binding”.
With B5, the binding result is recorded as “no binding”.

A further assay deals with T3, Her018P, Her2 ECD with a deletion in the CR2 (Domain IV) region expressed with a mIgG2a Fc tail (human; murine, UniProt P04626 23-599).
T3 construct: Shares the name HER018 with the trastuzumab SMIP; also called 1.8 (Dimer); dimeric HER018; not shown: murine IgG2a Fc tail (C-terminal dimerising carrier) and any junction residues
Kind of assay: ELISA, soluble scFv on Her018.
Turning to B1, the binding result is recorded as “no binding”.
Still for that read-out and setting: then B2, with “no binding”; and B3, with “no binding”.
Consider B4, for which the binding result is recorded as “no binding”.
Still for that read-out and setting: next, B5: “no binding”.

The target of a further assay is T1, L1-CR1 (Her054P). Description: ELISA, soluble scFv on L1-CR1.
Description: as §1
As for B1, the binding result was “no binding”.
On the same count and under the same terms, next, B2: “no binding”; B3: “no binding”; B6: “no binding”.
The same measure, in the same setting: next, B4: “no binding”; B5: “no binding”; B7: “no binding”.

Source of the values: patent US20090258005A1 (TRUBION PHARMACEUTICALS, published 2009).
